Results taken from patent US20140303084.
Numbering of substitutions follows the chain as printed.

Tests used:
[1] = test system: T1, (KLTCLASYCWLF)2═N-O-(CH2)3-O-N═
T1 sequence: KLTCLASYCWLF

[2] = test system: T2, ARAPGKLQCLASYCWLFWTGIA
T2 sequence: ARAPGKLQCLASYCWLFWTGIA

[3] = test system: T3, GSVRRALFVA ARAPA KLTCLASYCWLFWTGIA
T3 sequence: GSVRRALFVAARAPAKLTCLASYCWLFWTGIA

[4] = test system: T4, HMQWGKLPCLASYCWLFWYGIG
T4 sequence: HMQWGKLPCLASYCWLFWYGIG

[5] = test system: T5, KKLTCLASYCWLF
T5 sequence: KKLTCLASYCWLF

[6] = test system: T6, KLACLASYCWLF
T6 sequence: KLACLASYCWLF

[7] = test system: T7, KLLKLLLKLLLKLLK-k-MeLeu-TCLASYCWLF
T7 sequence: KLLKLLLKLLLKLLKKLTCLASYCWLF

[8] = test system: T8, KLT-Glu-LASY-Lys-WLF
T8 sequence: KLTELASYKWLF

[9] = test system: T9, KLTCLASYCALF
T9 sequence: KLTCLASYCALF

[10] = test system: T10, KLTCLASYCQLF
T10 sequence: KLTCLASYCQLF

[11] = test system: T11, KLTCLASYCWAF
T11 sequence: KLTCLASYCWAF

[12] = test system: T12, KLTCLASYCWIF
T12 sequence: KLTCLASYCWLF

[13] = test system: T13, KLTCLASYCWLA
T13 sequence: KLTCLASYCWLA

[14] = test system: T14, KLTCLAsYCWLF
T14 sequence: KLTCLASYCWLF

[15] = test system: T15, KLTCLSSYCWLF
T15 sequence: KLTCLSSYCWLF

[16] = test system: T16, PEG16-Lys(PEG2-Biotin)-PEG16-rRAPGKLTCLASYCWLFWTGIA
T16 sequence: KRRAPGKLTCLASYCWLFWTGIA

[17] = test system: T17, PGKLQCLASYCWLFWTGIA
T17 sequence: PGKLQCLASYCWLFWTGIA

[18] = test system: T18, PRIRTSGPGSRSASGKLTCLASYCWLFWTGIA
T18 sequence: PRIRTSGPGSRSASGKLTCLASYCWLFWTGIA

[19] = test system: T19, PRIRTVGPGSRSASGKLTCLASYCWLFATGIA
T19 sequence: T18 sequence with S6V, W28A

[20] = test system: T20, PRIRTVGPGSRSASGKLTCLASYCWLFLTGIA
T20 sequence: T18 sequence with S6V, W28L

[21] = test system: T21, PRIRTVGPGSRSASGKLTCLASYCWLFWTFIA
T21 sequence: T18 sequence with S6V, G30F

[22] = test system: T22, PRSRTVGPGSRSASGKSTCLASYCWLFWTGIA
T22 sequence: T18 sequence with I3S, S6V, L17S

[23] = test system: T23, QWQIAGQVLKRRAPA KLTCLASYCWLFWTGIA
T23 sequence: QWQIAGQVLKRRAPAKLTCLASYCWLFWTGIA

[24] = test system: T24, RRAAGKLQCLASYCWLFWTGIA
T24 sequence: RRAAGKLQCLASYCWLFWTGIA

[25] = test system: T25, RRAPGKCTALASYCWLFWTGIA-CONH2
T25 sequence: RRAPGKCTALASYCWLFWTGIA

[26] = test system: T26, RRAPGKLQCLASYCWLFKTGIA
T26 sequence: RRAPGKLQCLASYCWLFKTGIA

[27] = test system: T27, RRAPGKLQCLASYCWLFWAGIA
T27 sequence: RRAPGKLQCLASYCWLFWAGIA

[28] = test system: T28, RRAPGKLQCLASYCWLFWTG-Nle-A
T28 sequence: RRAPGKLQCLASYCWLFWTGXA

[29] = test system: T29, RRAPGKLQCLASYCWLFWTGLA
T29 sequence: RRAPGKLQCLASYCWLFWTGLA

[30] = test system: T30, RRAPGKLTCL-MeAla-SYCWLFWTGIA
T30 sequence: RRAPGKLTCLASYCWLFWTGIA

[31] = test system: T31, RRAPGKLTCLASYCWLF ATGVT FPQIWAIPSP
T31 sequence: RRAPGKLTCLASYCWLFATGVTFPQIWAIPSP

[32] = test system: T32, RRAPGKLTCLASYCWLF EPGIA QPYAKSPTRN
T32 sequence: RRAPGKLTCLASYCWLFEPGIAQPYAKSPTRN

[33] = test system: T33, RRAPGKLTCLASYCWLF LGGIA PEGASTRTAN
T33 sequence: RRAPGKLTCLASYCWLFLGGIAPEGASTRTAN

[34] = test system: T34, RRAPGKLTCLASYCWLF WAGIA PHRPLKERVR
T34 sequence: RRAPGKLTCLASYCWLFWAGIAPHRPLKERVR

[35] = test system: T35, RRAPGKLTCLASYCWLF WTGIA RWPSHRSGPS
T35 sequence: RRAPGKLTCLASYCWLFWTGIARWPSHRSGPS

[36] = test system: T36, RRAPGKLTCLASYCWLFWK(PEG2-Biotin)GIA
T36 sequence: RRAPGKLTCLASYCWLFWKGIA

[37] = test system: T37, RRAPGKLTCLASYCWLFWTGIA-PEG4
T37 sequence: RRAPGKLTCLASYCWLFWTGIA

[38] = test system: T38, RRAPGKLTCLASYcWLFWTGIA
T38 sequence: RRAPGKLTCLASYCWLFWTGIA

[39] = test system: T39, RSTVSQMRCLASYCWLFPALVS
T39 sequence: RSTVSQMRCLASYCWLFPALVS

[40] = test system: T40, SKQGRPASPDrRAAGKLTCLASYCWLFWTGIA
T40 sequence: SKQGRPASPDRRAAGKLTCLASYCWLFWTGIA

[41] = test system: T41, SKQGRPIAPDrRAAGKLTCLASYCWLFWTGIA
T41 sequence: T40 sequence with A7I, S8A

[42] = test system: T42, TALSRGLVTM RTAPD KLTCLASYCWLFWTGIA
T42 sequence: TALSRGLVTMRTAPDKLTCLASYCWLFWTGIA

[43] = test system: T43, VSGTGKLTCLASYCWLFQLGSF
T43 sequence: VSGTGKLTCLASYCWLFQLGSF

[44] = test system: T44, VSGTGRLTCVASYCWMFQLGIF
T44 sequence: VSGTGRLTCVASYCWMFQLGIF

[45] = test system: T45, compound 24
T45 sequence: T40 sequence with A7I

[46] = test system: T46, compound B
T46 sequence: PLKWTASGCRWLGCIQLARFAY

[47] = test system: T47, compound C
T47 sequence: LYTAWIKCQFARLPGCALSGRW

[48] = test system: T48, rRAAGKLTCLASACWLFATGIA
T48 sequence: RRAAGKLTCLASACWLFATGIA

[49] = test system: T49, rRAPGKLTCLASYCWLFSTGIA
T49 sequence: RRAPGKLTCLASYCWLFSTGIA

[50] = test system: T50, rrapgkltclasycwlfwtgia (inverso)
T50 sequence: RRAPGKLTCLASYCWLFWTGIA

human Factor IXa
Vmax, FXa generation assay [1]: > 3
Vmax, FXa generation assay [2]: > 2
Vmax, FXa generation assay [3]: > 2
Vmax, FXa generation assay [4]: > 2
Vmax, FXa generation assay [5]: > 3
Vmax, FXa generation assay [6]: > 2
Vmax, FXa generation assay [7]: > 2
Vmax, FXa generation assay; (++) means 1-2 [8]: (++)
Vmax, FXa generation assay [9]: > 3
Vmax, FXa generation assay [10]: > 3
Vmax, FXa generation assay [11]: > 2
Vmax, FXa generation assay [12]: > 3
Vmax, FXa generation assay [13]: > 3
Vmax, FXa generation assay [14]: > 2
Vmax, FXa generation assay [15]: > 2
Vmax, FXa generation assay [16]: > 3
Vmax, FXa generation assay [17]: > 2
Vmax, FXa generation assay [18]: > 3
Vmax, FXa generation assay [19]: > 3
Vmax, FXa generation assay [20]: > 3
Vmax, FXa generation assay [21]: > 2
Vmax, FXa generation assay [22]: > 3
Vmax, FXa generation assay [23]: > 2
Vmax, FXa generation assay [24]: > 2
Vmax, FXa generation assay [25]: > 2
Vmax, FXa generation assay [26]: > 0.2
Vmax, FXa generation assay [27]: > 3
Vmax, FXa generation assay [28]: > 2
Vmax, FXa generation assay [29]: > 2
Vmax, FXa generation assay; (++) means 1-2 [30]: (++)
Vmax, FXa generation assay [31]: > 3
Vmax, FXa generation assay [32]: > 2
Vmax, FXa generation assay [33]: > 3
Vmax, FXa generation assay [34]: > 2
Vmax, FXa generation assay; (++) means 1-2 [35]: (++)
Vmax, FXa generation assay; (++) means 1-2 [36]: (++)
Vmax, FXa generation assay [37]: > 2
Vmax, FXa generation assay; (++) means 1-2 [38]: (++)
Vmax, FXa generation assay; (++) means 1-2 [39]: (++)
Vmax, FXa generation assay [40]: > 2
Vmax, FXa generation assay [41]: > 3
Vmax, FXa generation assay; (++) means 1-2 [42]: (++)
Vmax, FXa generation assay; (++) means 1-2 [43]: (++)
Vmax, FXa generation assay; (++) means 1-2 [44]: (++)
Vmax, FXa generation assay with hFIXa [45]: > 3
Vmax, FXa generation assay with hFIXa; (++) means 1-2 [46]: (++)
KM (nM) of hFIXa for FX [47]: 99 nM
Vmax, FXa generation assay with hFIXa [47]: > 0.6
kcat (min^-1) of hFIXa for FX, scrambled control at 10.0 µM [47]: 0.00044 min⁻¹
Vmax, FXa generation assay; (++) means 1-2 [48]: (++)
Vmax, FXa generation assay; (++) means 1-2 [49]: (++)
Vmax, FXa generation assay [50]: > 2
